# According to the DeepSol protein solubility set:
# Experiment: soluble on expression in E. coli; label from the status in PepcDB or PDB records
row,Sequence,soluble on expression in E. coli
1,MGHHHHHHSHMKANLSLLRRPGEKTYTQRCRLFVGNLPADITEDEFKRLFAKYGEPGEVFINKGKGFGFIKLESRALAEIAKAELDDTPMRGRQLRVRFATHAAALSVRNLSPYVSNELLEEAFSQFGPIERAVVIVDDRGRSTGKGIVEFASKPAARKAFERCSEGVFLLTTTPRPVIVEPLEQLDDEDGLPEKLAQKNPMYQKE,soluble
2,MGHHHHHHSHMKFEAFKIVPVGYIRKEKNVFIEILPEFREGMEGLREGDWIKLILWFHKSDTPELRRILKVHPHGNPENPLTGVFATRSPFRPNPYTVKVHKIEGNRIYIDWIDAEDGTPVSDIKIFPERYDCPKENYQSTSRLKS,soluble
3,MGHHHHHHSHMKFRAKIVDGACLNHFTRISNMIAKLAKTCTLRISPDKLNFILCDKLANGGVSMWCELEQENFFNEFQMEGVSAENNEIYLELTSENLSRALKTAQNARALKIKLTNKHFPCLTVSVELLSMSSSSRIVTHDIPIKVIPRKLWKDLQEPVVPDPDVSIYLPVLKTMKSVVEKMKNISNHLVIEANLDGELNLKIETELVCVTTHFKDLGNPPLASESTHEDRNVEHMAEVHIDIRKLLQFLAGQQVNPTKALCNIVNNKMVHFDLLHEDVSLQYFIPALS,soluble
4,MGHHHHHHSHMKVAQAKLKEIGPDDMNMEEYKKWHEDYSLFRKVSVYLLTGLELYQKGKYQEALSYLVYAYQSNAALLMKGPRRGVKESVIALYRRKCLLELNAKAASLFETNDDHSVTEGINVMNELIIPCIHLIINNDISKDDLDAIEVMRNHWCSYLGQDIAENLQLCLGEFLPRLLDPSAEIIVLKEPPTIRPNSPYDLCSRFAAVMESIQGVSTVTVK,not soluble
5,MGHHHHHHSHMLNSTGELEFSNEEDPEIISQLTSLPLSGGKSSAGVPEKTGYPDSVYVMAANIFQGIRIEKSAQKVLIKYGNEPLRSLSESEDQSFQRLSYELAFSALKYQDILETILIDSCIFPSTTTPDHLSSLIIVMLYDFQDRKFQTRVLSDNEEPISEVQEVENLLNSFKIKLAAALARCRIKHDALSIYHILPETVRKQELRASTLPLYAWINTCKISPEEVYNNLKRRGYNKVKSVLHIDDKVFAVDQHCYDVLIFPSHLKNDLINIDLFKDYKLIFQVN,not soluble
6,MGHHHHHHSHMLRILKKDCALTGGEVTLANQTKIFYVIKAPSLCSLVGSPSSDSVTSQELFKTFPCETPLSMPLVSTSNPLLSIVRLMVSPKPYDLTGVLCFGEDHETHYILRRVAKILTMTQEELDTICDIELHFSSNETLSSNRVPSRLTESIFPGLVPTVHFPQNMILSRGFFTGGNGPIIKHVAQTHHLTSDFVARVFYALKTPQAHAPGAAQLYRGLQIMNHAHNGLDFFPSDSDINDMQQMFLKHVLLSRKGTDSCAQMFFQAYLPVAPEVLGPEVIERVELALAKIELFANNTVFCMSTISTIVRPRIQVTTSANIKYIRMANKYFTMFPPINKDTAVIFGAAVLDQICKETPIREIVLVLRKYAHVVRRPHTPTIKLYTVLTL,not soluble
7,MGHHHHHHSHMLVDNLYRVVSNQKDAAVIRVHLEVNASHEIFKGHFPEVPVLPGVCMVQCIKELIEESLLVKTQIDKGDMIKFLSMLNPVESNSIQAEISIKEKTETRIVFQATLKNEDRFLLKYSGSLVVLN,not soluble
8,MGHHHHHHSHMPLTSAFRAVDNDPGIIVWRIEKMELALVPVSAHGNFYEGDCYVILSTRRVASLLSQDIHFWIGKDSSQDEQSCAAIYTTQLDDYLGGSPVQHREVQYHESDTFRGYFKQGIIYKQGGVASGMKHVETNTYDVKRLLHVKGKRNIRATEVEMSWDSFNRGDVFLLDLGKVIIQWNGPESNSGERLKAMLLAKDIRDRERGGRAEIGVIEGDKEAASPELMKVLQDTLGRRSIIKPTVPDEIID,soluble
9,MGHHHHHHSHMQYMYFKAEPYAADEGSGEGHKWLMVHVDKRITLAAFKQHLEPFVGVLSSHFKVFRVYASNQEFESVRLNETLSSFSDDNKITIRLGRALKKGEYRVKVYQLLVNEQEPCKFLLDAVFAKGMTVRQSKGELIPQLREQCGLELSIDRFRLRKKTWKNPGTVFLDYHIYEEDINISSNWEVFLEVLDGVEKMKSMSQLAVLSRRWKPSEMKLDPFQEVVLESSSVDELREKLSEISGIPLDDIEFAKGRGTFPCDISVLDIHQDLDWNPKVSTLNVWPLYICDDGGVIFYRDKTEELMELTDEQRNELMKKESSRLQKTGHRVTYSPRKEKALKIYLDGAPNKDLTQD,not soluble
10,MGHHHHHHSHMRLTLLCCTWREERMGEEGSELPVCASCGQRIYDGQYLQALNADWHADCFRCCDCSASLSHQYYEKDGQLFCKKDYWARYGESCHGCSEQITKGLVMVAGELKYHPECFICLTCGTFIGDGDTYTLVEHSKLYCGHCYYQTVVTPVIEQILPDSPGSHLPHTVTLVSIPASSHGKRGLSVSIDPPHGPPGCGTEHSHTVRVQGVDPGCMSPDVKNSIHVGDRILEINGTPIRNVPLDEIDLLIQETSRLLQLTLEHDPHDTLGHGLGPETSPLSSPAYTPSGEAGSSARQKPVLRSCSIDRSPGAGSLGSPASQRKDLGRSESLRVVCRPHRIFRPSDLIHGEVLGKGCFGQAIKVTHRETGEVMVMKELIRFDEETQRTFLKEVKVMRCLEHPNVLKFIGVLYKDKRLNFITEYIKGGTLRGIIKSMDSQYPWSQRVSFAKDIASGMAYLHSMNIIHRDLNSHNCLVRENKNVVVADFGLARLMVDEKTQPEGLRSL,soluble
11,MGHHHHHHSHMSETTQTSQSLYQALWNSADVLRSKMDANDYKSYLLGMVFYKYLSDKMLFFVAETMEEETESLDEALAVYRKYYEDEETHEDLLAVITDEMSYAIHPDLTFTALVERVNDGSFQLEDLAQGFRDIEQSDELYENLFEDIDLYSKKLGATPQKQNQTVAAVMKELAVLDVAGHAGDMLGDAYEYLIGQFATDSGKKAGEFYTPQPVAKLMTQIAFLGREDKQGFTLYDATMGSGSLLLNAKRYSRQPQTVVYFGQELNTSTYNLARMNMILHGVPIENQFLHNADTLDEDWPTQEPTNFDGVLMNPPYSAKWSASSGFMDDPRFSPFGKLAPKSKADFAFLLHGYYHLKQDNGVMAIVLPHGVLFRGNAEGTIRKALLEEGAIDTVIGLPANIFFNTSIPTTVIILKKNRTNRDVYFIDASKEFDKGKNQNIMTDAHIEKILNAYKSREDIDKFAHLASFEEIVENDYNLNIPRYVDTFEEEEVEPLTEIVAKINQTNATIESQTASLLDMLGQLHGTTPEADEELKAFVKAFKG,not soluble
12,MGHHHHHHSHMSGTEEAILGGRDSHPAAGGGSVLCFGQCQYTAEEYQAIQKALRQRLGPEYISSRMAGGGQKVCYIEGHRVINLANEMFGYNGWAHSITQQNVGEYALQQWGLLHCPAPAESLLWVRR,soluble
13,MGHHHHHHSHMSGVAGGASKKSSSRTMATKKLIIDEFKRRLRDNIKSLNDNFFHIIQAAKVNPDDNAYKNQTGKMTEFYTTKNEMAVRAQLMVRASDELLKLTADLKEFLILHDFHFLTHNIKQAEAQCEETLRQQSHQHNCLDSEVSNILFDLEREIAENFYLRHT,not soluble
14,MGHHHHHHSHMSLDINQIALHQLIKRDEQNLELVLRDSLLEPTTTVVEMVAELHRVYSAKNKAYGLFNEESELAQALRLQRQGEEDFLAFSRAATGRLRDELAKYPFADGGIVLFCHYRYLAVEYLLVTVLNNLSSMRVNENLDINPTHYLDINHADIVARIDLTEWETNPQSTRYLTFLKGRVGRKVADFFMDFLGASEGLNAKAQNRGLLQAVDDFTAEAQLDKAERQNVRQQVYSYCNEQLQAGEEIELESLSKELSGVSEVSFSEFTAEKGYELEESFPADRSTLRQLTKYAGSGGGLTINFDAMLLGERIFWDPATDTLTIKGTPPNLRDQLQRRTSGGK,soluble
15,MGHHHHHHSHMSSILPFTPPIVKRLLGWKKGEQNGQEEKWCEKAVKSLVKKLKKTGQLDELEKAITTQNVNTKCITIPRSLDGRLQVSHRKGLPHVIYCRLWRWPDLHSHHELRAMELCEFAFNMKKDEVCVNPYHYQRVETPVLPPVLVPRHTEIPAEFPPLDDYSHSIPENTNFPAGIEPQSNIPETPPPGYLSEDGETSDHQMNHSMDAGSPNLSPNPMSPAHNNLDLQPVTYCEPAFWCSISYYELNQRVGETFHASQPSMTVDGFTDPSNSERFCLGLLSNVNRNAAVELTRRHIGRGVRLYYIGGEVFAECLSDSAIFVQSPNCNQRYGWHPATVCKIPPGCNLKIFNNQEFAALLAQSVNQGFEAVYQLTRMCTIRMSFVKGWGAEYRRQTVTSTPCWIELHLNGPLQWLDKVLTQMGSPSIRCSSVS,soluble
16,MGHHHHHHSHMTECRKSVPCGWERVVKQRLFGKTAGRFDVYFISPQGLKFRSKSSLANYLHKNGETSLKPEDFDFTVLSKRGIKSRYKDCS,not soluble
17,MGHHHHHHSHMTIEEFAAGPAQSGILVDREVVSLFLHFTVNPKPRVEFIDRPRCCLRGKECSINRFQQVESRWGYSGTSDRIRFSVNKRIFVVGFGLYGSIHGPTDYQVNIQIIHTDSNTVLGQNDTGFSCDGSASTFRVMFKEPVEVLPNVNYTACATLKGPDSHYGTKGLRKVTHESPTTGAKTCFTFCYAAGNNNGTSVEDGQIPEVIFYT,not soluble
18,MGHHHHHHSHMTVHIKVYSDYVCPFCFVGKAAFEEAIKGKDVEVEWMPFELRPSPSPQLDPVNDPSKQYMWQTSIQPMAEKLGVEINFPNVSPHPYTDLAFEGFHFAKEYNKGHEYNTRVFQAFFQEDQNIGDIDILTKLAEEVGLDGASFKSALETRTYQDVQRQALKHAYEEADITAVPTFIIGDTVIPGAAGKDVFEKAISDEQKKK,not soluble
19,MGHHHHHHSHPQLLHFVDQYREQLIARVTSVEVVLDKLHGQVLSQEQYERVLAENTRPSQMRKLFSLSQSWDRKCKDGLYQALKETHPHLIMELWEKG,not soluble
20,MGHHHHHHSHQGEEELVSQTDVKTFLEALPQESWQNKHAGSNGNRATNGAPSLVSRGMQGASANTLNSETSTKRAAVYRMNRNHRGLCVIVNNHSFTSLKDRQGTHKDAEILSHVFQWLGFTVHIHNNVTKVEMEMVLQKQKCNPAHADGDCFVFCILTHGRFGAVYSSDEALIPIREIMSHFTALQCPRLAEKPKLFFIQACQGEEIQPSVSIEADALNPEQAPTSLQDSIPAEADFLLGLATVPGYVSFRHVEEGSWYIQSLCNHLKKLVPRMLKFLEKTMEIRGRKRTVWGA,not soluble
21,MGHHHHHHSHRIVILQGAAGIGKSTLARQVKEAWGRGQLYGDRFQHVFYFSCRELAQSKVVSLAELIGKDGTATPAPIRQILSRPERLLFILDGVDEPGWVLQEPSSELCLHWSQPQPADALLGSLLGKTILPEASFLITARTTALQNLIPSLEQARWVEVLGFSESSRKEYFYRYFT,not soluble
22,MGHVLIEMMGIKKGDFVLDVGCGTGRQALNVAGIIGPAGKLTGIDPSSYRIELARKKFEGDSSGNVRFLVRQAENLQDIPDNSINHAYFCSSFHWVDDKKTALNEIFRVLRPGGKVGMTTLDRNSPNTMKALIDPILAKFGIERRHEWHRGMKKVTAPELHDLLSGAGFTSISIEPRAVPRKYNSPEEFLQHPEEKDSSRGILRDISNETLEKLRQEITEEFRKAQTPEDIGFGNITLFAIATKAQEGLEHHHHHH,soluble
23,MGHYRGTWLEIGRMPMLLTDGCVAGYSTYRQGKSADEVLVEDGCREGTPQGKLKTINGVGKIEDFASTKAKMRVRYPLLITFNYWVLYKSPDKSWFISANPSTEDVWVYARSVPSKAKLNRMMMKVRELGYDVKKLEFPLEHHHHHH,soluble
24,MGIAEWRYQDVPEKLWPIQPLRDFWGINKRTEKKLNKRGIFTIGDLAKYPYHYLKRDFGVLGIDMHLHANGIDQSKLEHHHHHH,not soluble
